From patent US20210340265A1 (UNM RAINFOREST INNOVATIONS, published 2021) come the findings set out here.

The target in assay [1] is T1, CCK-B receptor (as coated in the indirect ELISA; form not stated).
T1 chain: CETPRIRGTGTRELE
The assay can be described thus: ELISA. A general note: In an ELISA, binding on a coated surface is turned into a signal by an enzyme label.

The target of assay [2] is T2, 15-amino-acid extracellular CCK-B receptor peptide fragment CETPRIRGTGTRELE
T2 construct: Custom peptide (GenScript) used for immunization and panning; also called CCK-B peptide
T2 peptide: Biotin-CETPRIRGTGTRELE
The assay can be described thus: indirect ELISA on CCK-B receptor peptide.

Ends that are not written are not given here. * marks the point of attachment. Biotin = O=C1N[C@H]2[C@H](CS[C@H]2CCCCC(=O)*)N1

B1: CCK-BR-scFv134-1 (scFv)
scFv: MAGAELVKPGASVKMSCKASGYTFTDYWMHWVKQRPGQGLEWIGAIDTSDSYTSYNQKFKGKATLTVDKSSSTAYIQLSSLTSEDSAVYYCARSEGYLPFDYWGQGTTLTVSSAKTTAPSGGGGSGGGGSGGGGGSGGGGSLSLPVSFGDQVSISCRSSQSLANSYGNTYLSWYLHKPGQSPQLLIYGISNRFSGVPDRFSGSGSGTDFTLKISTIKPEDLGMYYCLQGTHQPRTFGGGTKLEIKRADAAALEHHHHHH
In general, Kd refers to the constant that tells how readily two partners part at equilibrium. A high value points to a looser complex. As for B1, in assay [1], the dissociation constant (Kd) was found to be 366 nM.

B2: CCKBR-scFv11-2 (scFv)
scFv: MAQVQLKQSGAELVRPGSSVKISCKASGYAFTNYLIEWVKQRPGQGLEWIGQIYPGDGDTNYNGKFKGKATLTVDNSSSTAYMELRSLTSEDSAVYYCARAATWYYAMDYWGQGTSVTVSSGGGGSGGGGSAIMSASPGEKVTITCSASSSVSYMHWFQQKPGTSPKLWIYSTSNLASGVPARFSGSGSGTSYSLTISSMEAEDAASYFCHQWSSYPWTFGGGTKLEIKRADAAALEHHHHHH
With B2, the binding result in assay [2] is on record as “binds”.

B3: CCK-BR-scFv14-3 (scFv)
chain: MAGAELVRSGASVKLSCTASGFNIKDYYIHWVKQRPEQGLEWIGWIDPENGDTEYAPKFQGKATMTADTSSNTAYLQLSSLTSEDTAVYYCNAGGRFAYWGQGTLVTVSAAKTTAPSGGGGSGGGGSGGGGGSGGGGSSSLSVSSGEKVTMSCKSSQSLLNSGNQKNYLAWYQQKPGQPPKLLIYWASTDESGVPDRFTGSGSGTDFTLTVSSVQAENLALYYCQNDHSYPYHVFDGGTKLEIKRADAAALE
B3 returned a Kd in assay [1] of 349 nM.

B4: CCK-BR-scFv77-2 (scFv)
scFv: MAGAELVRSGASVKLSCTASGFNIKDYYIHWVKQRPEQGLEWIGWIDPENGDTEYAPKFQGKATMTADTSSNTAYLQLSSLTSEDTAVYYCNAGGRFAYWGQGTLVTVSAAKTTAPSGGGGSGGGGSGGGGGSGGGGSSSLSVSAGEKVTMSCKSSQSLLNSGNQKNYLAWYQQKPGQPPKLLIYGASTRESGVPDRFTGSGSGTDFTLTISSVQAEDLAVYYCQNDHSYPYTFGGGTKLEIKRADAAALEHHHHHH
As to B4, the equilibrium dissociation constant (Kd) in assay [1] was found to be 195 nM.
